Experimental findings from paper PMC7834972 are described below.

This test addresses SARS-CoV-2 S-I53-50A.1NT1 fusion protein (SARS-CoV-2). The test is described as follows: SEC; Superose 6 increase 10/300 GL in TBS with 5% glycerol; fractions between 12-14 mL pooled; blue native gel of the pooled fractions.

For “SARS-CoV-2 S-I53-50A.1NT1 fusion protein”, the stoichiometry N was 3.

The stoichiometry N is a count of units in the complex or per binding partner.
